Results as given in publication PMC3958255 (Sensors (Basel, Switzerland), 2014).

Key:
[1] = target: T1, Lc-Jun (bJun fused downstream of mLumin (151-233)) (UniProt P05412 257-318); assay: split reporter (BiFC, NanoBiT); mLumin-based BiFC from the bicistronic vector pBudCE4.1 (BEVL-BiFC) in living COS-7 cells; 100 ng vector (also 300 ng) with 30 ng pmCerulean-C1 as internal control; imaged 16 h after cotransfection; BiFC efficiency = fluorescence intensity ratio of mLumin to mCerulean; conditions: partners not purified
T1 construct: primers are in the Supporting Information; also called Lc-bJun; source: COS-7, transfected (pBudCE4.1 bicistronic vector), in living cells; not shown: mLumin (151-233) (Lc), N-terminal, kept
T1 sequence (P05412 257-318): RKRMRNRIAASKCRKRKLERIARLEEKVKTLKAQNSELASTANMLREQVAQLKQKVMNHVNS

[2] = target: T2, Jun-Lc (bJun fused upstream of mLumin (151-233)) (UniProt P05412 257-318); assay: as above; conditions: partners not purified
T2 construct: primers are in the Supporting Information; also called bJun-Lc; source: COS-7, transfected (pBudCE4.1 bicistronic vector), in living cells; not shown: mLumin (151-233) (Lc), C-terminal, kept
T2 sequence (P05412 257-318): as above

B1: Ln-Fos (bFos fused downstream of mLumin (1-151)) (domain or fragment, UniProt P01100 118-210, looked up)
chain: GRAQSIGRRGKVEQLSPEEEEKRRIRRERNKMAAAKCRNRRRELTDTLQAETDQLEDEKSALQTEIANLLKEKEKLEFILAAHRPACKIPDDL
notes: primers are in the Supporting Information; also called Ln-bFos; source: COS-7, transfected (pBudCE4.1 bicistronic vector), in living cells; not shown: mLumin (1-151) (Ln), N-terminal, kept
fold contrast in BiFC efficiency over ΔFos/Jun [1]: ~25 fold | fold contrast in BiFC efficiency over ΔFos/Jun [2]: ~25 fold
